Source: paper PMC3876986, “The Velvet Family of Fungal Regulators Contains a DNA-Binding Domain Structurally Similar to NF-κB”

What was measured:
Assay in all cases: EMSA; EMSA: 10 mM HEPES/NaOH pH 7.4, 150 mM NaCl, ~53 pmol DNA in 10 ul, RT 15 min; DNA:protein molar ratios 1:0.3 to 1:9; 6% PAGE, 0.5% TBE, ethidium bromide
Settings in all cases: protein: recombinant; tags: Strep-tag (C-terminal); chain copies: 2; blunt
VosA1-190 dead = target: T1, VosA1-190 dead (Aspergillus nidulans, UniProt Q5BBX1 1-190, K37A;K39A;R41A;K42A)
T1 sequence: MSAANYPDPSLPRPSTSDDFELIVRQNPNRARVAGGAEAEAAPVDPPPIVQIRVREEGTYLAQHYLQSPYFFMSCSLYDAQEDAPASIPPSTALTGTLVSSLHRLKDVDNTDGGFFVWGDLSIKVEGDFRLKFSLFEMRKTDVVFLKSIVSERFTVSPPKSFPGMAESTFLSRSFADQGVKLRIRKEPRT

VosA1-190 K37A/K39A = target: T2, VosA1-190 K37A/K39A (Aspergillus nidulans, UniProt Q5BBX1 1-190, K37A;K39A)
T2 sequence: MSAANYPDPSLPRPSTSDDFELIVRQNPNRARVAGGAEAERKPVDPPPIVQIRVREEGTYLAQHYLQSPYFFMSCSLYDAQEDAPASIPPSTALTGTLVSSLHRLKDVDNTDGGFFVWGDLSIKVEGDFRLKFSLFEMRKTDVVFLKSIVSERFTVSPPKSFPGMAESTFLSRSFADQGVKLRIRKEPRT

VosA1-190 K160A = target: T3, VosA1-190 K160A (Aspergillus nidulans, UniProt Q5BBX1 1-190, K160A)
T3 sequence: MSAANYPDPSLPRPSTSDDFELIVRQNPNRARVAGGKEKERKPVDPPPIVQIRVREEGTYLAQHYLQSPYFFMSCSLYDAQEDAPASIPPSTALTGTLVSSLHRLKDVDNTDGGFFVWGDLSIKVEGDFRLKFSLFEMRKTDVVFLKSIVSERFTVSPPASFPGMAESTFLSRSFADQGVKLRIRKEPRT

B1: brlA 35 bp probe (OHS301/302) (dsDNA)
DNA 1: ATTCGGCGACTAGGATCTTACTGGCCGCGGCCGAG
DNA 2: CTCGGCCGCGGCCAGTAAGATCCTAGTCGCCGAAT
B1: no binding (VosA1-190 dead); no binding (VosA1-190 K37A/K39A); binds (VosA1-190 K160A).
